Biological target: GST-Dyn2(DQR)_(motor) (D1406A/Q1407A/R1410A mutant of GST-Dyn2_(motor)) (human) (UniProt Q8NCM8)

Q: Which maximum velocity of microtubule gliding by the unstacked GST-Dyn2(DQR) (motor) does the source give for “GST-Dyn2(DQR)_(motor) (D1406A/Q1407A/R1410A mutant of GST-Dyn2_(motor)), Q8NCM8 1091-4307” here?
A: 562 nm/s
